Two molecules from paper PMC4454178 (Molecular Biology of the Cell, 2015) can be followed below.

The data set “SAXS” deals with the molecule itself. Briefly: SAXS.
In data set [1] the target is MBP-PDZ (PDZ domain of PICK1 fused to MBP) (human, UniProt Q9NRD5 22-105). Briefly: ITC. (In general: ITC needs no label: the signal is the heat of the interaction.)

What is called stoichiometry N is a count of units in the complex or per binding partner. The term Kd denotes the concentration at which binding is half-saturated.

B1: MBP-PICK1 fusion protein (natural protein, human, UniProt Q9NRD5 1-415, looked up)
chain: MFADLDYDIEEDKLGIPTVPGKVTLQKDAQNLIGISIGGGAQYCPCLYIVQVFDNTPAALDGTVAAGDEITGVNGRSIKGKTKVEVAKMIQEVKGEVTIHYNKLQADPKQGMSLDIVLKKVKHRLVENMSSGTADALGLSRAILCNDGLVKRLEELERTAELYKGMTEHTKNLLRAFYELSQTHRAFGDVFSVIGVREPQPAASEAFVKFADAHRSIEKFGIRLLKTIKPMLTDLNTYLNKAIPDTRLTIKKYLDVKFEYLSYCLKVKEMDDEEYSCIALGEPLYRVSTGNYEYRLILRCRQEARARFSQMRKDVLEKMELLDQKHVQDIVFQLQRLVSTMSKYYNDCYAVLRDADVFPIEVDLAHTTLAYGLNQEEFTDGEEEEEEEDTAAGEPSRDTRGAAGPLDKGGSWCDS
As for B1, the “stoichiometry N” value in the data set “SAXS” is 2.

B2: DAT C-terminal tail peptide (6 aa) (peptide)
peptide: RHWLKV
For the molecule B2, in data set [1], the Kd was about 1900 nM.
